Experimental data: article PMC9834170 (Cell Reports Medicine, 2023)

How the values were obtained:
[1] = target: T1, SARS-CoV-2 prototype RBD with human IgG Fc-tag (SARS-CoV-2, UniProt P0DTC2); assay: cell-based or functional assay
[2] = target: T1, SARS-CoV-2 prototype RBD with human IgG …; assay: SPR

Binder	IC50 of neutralization of live SARS-CoV-2 in Vero cells (blocks S with ACE2) [1]	Kd [2]	IC50 of neutralization of live SARS-CoV-2 in Vero cells (blocks RBD with hACE2) [1]
nanobody S43 (VHH) VHH: QVQLQESGGGLVQPGGSLRLTCAPSGFTLDYYAIGWFRQAPGKEREGVSCISSNNSTYYADSVKGRFTISRDNAKNTVYLQMNSLKPEDTAVYYCAAEPDYSGVYYYTCGWTDFGSWGQGTQVTVSS	40.7 nM	0.18 nM	
nanobody R14 (VHH) VHH: QVQLQESGGGLVQPGGSLRLSCAVSGFTLDYYAIGWFRQAPGKEREGVSCISSSDGSTSYADSVKGRFTISRDNAKNTVYLQMNSLKPEDTALYYCAATPATYYSGRYYYQCPAGGMDYWGQGTQVTVSS			1.3 nM
